Our source for the EC50 values is US20260347481 (published 2026).

For orientation: EC50 means the midpoint of the concentration-response curve. The low end stands for a more potent agent, the high end for a less potent agent.

This assay has as its target T1, Target peptide (meEGFR R198/R200) (human, cysteine pairing not given here).
T1 chain: K(Biotin)QCSG[Arg(Me2a)]C[Arg(Me2a)]GKSPSDC-NH2

Non-standard residues stand in square brackets, D forms with d. No end group written: not given here. *: point of attachment. Biotin = O=C1N[C@H]2[C@H](CS[C@H]2CCCCC(=O)*)N1; Arg(Me2a) = CN(C)C(=N)NCCC[C@H](N)C(=O)O

B1: Example 2 (antibody, V domains shown)
VH: QVQLQESGPGLVKPSETLSLTCSVSGDSITRSGYYWAWVRQSPGKGLEYIGSISYSGTTYYNPSLKSRVTISVDTSKNQFSLKLSSVTAADTAVYYCAREWNGLDVWGKGTMVTVSS
VL: LNFMLTQPHSVSESPGKTVTISCTRSSGSIASNYVQWYQQRPGSSPTTVIYEDNQRPFGVPDRFSGSIDSSSNSASLTISGLKTEDEADYYCQSYDSGHQIFGGGTKLTVLG
For the molecule B1, the EC50 came out at 0.0359 nM.

B2: Example 3 (antibody, V domains shown)
VH: QVQLQESGPGLVKPSGTLSLTCAVSGDSISSSSYYWGWIRQPPGKGLEWIGSIYYSGSTYYNPSLKSRVTISVDTSKNQFSLKLSSVTAADTAVYYCAREWNGLDVWGKGTLVTVSS
VL: LNFMLTQPHSVSESPGKTVTISCTGSSGSIASNYVQWYQQRPGSAPTTVIYEDNQRPSGVPDRFSGSIDSSSNSASLTISGLKTEDEADYYCQSYDRGNTEVMFGGGTKVTVLG
B2 showed a half-maximal effective concentration (EC50) of 0.0258 nM.
